# Patent US8772012B2, “Xylose isomerase and use thereof” (Kabushiki Kaisha Toyota Chuo Kenkyusho, priority 2009, dated 2014)
# Values joined by “and” are separate entries in the source; they are usually repeats but may differ in a detail not shown here. Equal entries are not always repeated.
# Test system: OC1OC[C@@H](O)[C@H](O)[C@H]1O
# Assay: cells, lysate or membranes named
# Conditions: other: xylose 5 to 250 mM, pH 7.5, 30° C., 10 mM MgCl2, crude yeast extract, Hanes-Woolf plot
substance,measurement,value
"Piromyces sp. E2 xylose isomerase PiXI-O (PiXI; codon optimized gene PiXI-O, SEQ ID NO: 46), expressed in yeast (Piromyces sp. E2)",Km,40 mM and 39.87 ± 7.43 mM
